Data published in article PMC11253692.

Biological target: TGF-β1 (human, UniProt P01137 279-390)
Assay: ELISA

TGF-β1, sequence (P01137 279-390): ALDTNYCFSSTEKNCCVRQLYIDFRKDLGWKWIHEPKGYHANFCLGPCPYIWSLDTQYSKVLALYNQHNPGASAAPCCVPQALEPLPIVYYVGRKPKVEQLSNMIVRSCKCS

B1: TGF-β1 aptamer (ssDNA)
DNA: CGCTCGGCTTCACGAGATTCGTGTCGTTGTGTCCTGTACCCGCCTTGACCAGTCACTCTAGAGCATCCGGACTG
modifications: 5'-SH (coupled to PEG-maleimide hydrogel)
B1 was tested. Which binding signal did it give?
Its binding signal is > 60 % bound (highest binding ratio, reached at 4 h).
